The record followed here is patent US20220098307A1 (WUHAN YZY BIOPHARMA, published 2022).

Changes are numbered by the printed parent chain. Names and notes keep the numbering of the source.

To fix the notation:
B1: M1IC-WT-1 (bispecific antibody, human IgG1, kappa)
chain: not shown
heavy: not shown
light: DVVMTQTPLSLPVSLGDQASISCRSSQSLVHSNGNTYLRWYLQKPGQSPKVLIYKVSNRFSGVPDRFSGSGSGTDFTLKISRVEAEDLGVYFCSQSTHVPWTFGGGTKLEIKRTVAAPSVFIFPPSDEQLKSGTASVVCLLNNFYPREAKVQWKVDNALQSGNSQESVTEQDSKDSTYSLSSTLTLSKADYEKHKVYACEVTHQGLSSPVTKSFNRGEC
notes: structure 1 isotype control; CH2 WT
B2: M1IC-G2-1 (bispecific antibody, human IgG1, kappa)
chain: QVQLVESGGGVVQPGRSLRLSCAASGFTFSTYAMNWVRQAPGKGLEWVARIRSKYNNYATYYADSVKDRFTISRDDSKNTLYLQMNSLRAEDTAVYYCARHGNFGNSYVSWFAYWGQGTLVTVSSGGGGSGGGGSGGGGSQTVVTQEPSLTVSPGGTVTLTCRSSTGAVTTSNYANWVQQKPGQAPRGLIGGTNKRAPGVPARFSGSLLGGKAALTLSGVQPEDEAEYYCALWYSNLWVFGGGTKVEIKGGGGSDKTHTCPPCPAPPVAGPSVFLFPPKPKDTLMISRTPEVTCVVVDVSHEDPEVQFNWYVDGVEVHNAKTKPREEQFNSTFRVVSVLTVVHQDWLNGKEYKCKVSNKGLPAPIEKTISKTKGQPREPQVCTLPPSRDELTKNQVSLSCAVKGFYPSDIAVEWESNGQPENNYKTTPPVLDSDGSFFLVSKLTVDKSRWQQGNVFSCSVMHEALHNHYTQKSLSLSPGK
heavy: EVKLDETGGGLVQPGRPMKLSCVASGFTFSDYWMNWVRQSPEKGLEWVAQIRNKPYNYETYYSDSVKGRFTISRDDSKSSVYLQMNNLRVEDMGIYYCTGSYYGMDYWGQGTSVTVSSASTKGPSVFPLAPSSKSTSGGTAALGCLVKDYFPEPVTVSWNSGALTSGVHTFPAVLQSSGLYSLSSVVTVPSSSLGTQTYICNVNHKPSNTKVDKKVEPKSCDKTHTCPPCPAPPVAGPSVFLFPPKPKDTLMISRTPEVTCVVVDVSHEDPEVQFNWYVDGVEVHNAKTKPREEQFNSTFRVVSVLTVVHQDWLNGKEYKCKVSNKGLPAPIEKTISKTKGQPREPQVYTLPPCRDELTKNQVSLWCLVKGFYPSDIAVEWESNGQPENNYKTTPPVLDSDGSFFLYSKLTVDKSRWQQGNVFSCSVMHEALHNHYTQKSLSLSPGK
light: B1 light
notes: structure 1 isotype control; CH2 G2CH2
B3: M1IC-AAG-1 (bispecific antibody, human IgG1, kappa, L234A L235A)
chain: QVQLVESGGGVVQPGRSLRLSCAASGFTFSTYAMNWVRQAPGKGLEWVARIRSKYNNYATYYADSVKDRFTISRDDSKNTLYLQMNSLRAEDTAVYYCARHGNFGNSYVSWFAYWGQGTLVTVSSGGGGSGGGGSGGGGSQTVVTQEPSLTVSPGGTVTLTCRSSTGAVTTSNYANWVQQKPGQAPRGLIGGTNKRAPGVPARFSGSLLGGKAALTLSGVQPEDEAEYYCALWYSNLWVFGGGTKVEIKGGGGSDKTHTCPPCPAPEAAGGPSVFLFPPKPKDTLMISRTPEVTCVVVDVSHEDPEVKFNWYVDGVEVHNAKTKPREEQYNSTYRVVSVLTVLHQDWLNGKEYKCKVSNKALGAPIEKTISKAKGQPREPQVCTLPPSRDELTKNQVSLSCAVKGFYPSDIAVEWESNGQPENNYKTTPPVLDSDGSFFLVSKLTVDKSRWQQGNVFSCSVMHEALHNHYTQKSLSLSPGK
heavy: not shown
light: B1 light
notes: structure 1 isotype control; CH2 AAG
B4: M1IC-NQ (bispecific antibody, human IgG1, kappa, N297Q)
chain: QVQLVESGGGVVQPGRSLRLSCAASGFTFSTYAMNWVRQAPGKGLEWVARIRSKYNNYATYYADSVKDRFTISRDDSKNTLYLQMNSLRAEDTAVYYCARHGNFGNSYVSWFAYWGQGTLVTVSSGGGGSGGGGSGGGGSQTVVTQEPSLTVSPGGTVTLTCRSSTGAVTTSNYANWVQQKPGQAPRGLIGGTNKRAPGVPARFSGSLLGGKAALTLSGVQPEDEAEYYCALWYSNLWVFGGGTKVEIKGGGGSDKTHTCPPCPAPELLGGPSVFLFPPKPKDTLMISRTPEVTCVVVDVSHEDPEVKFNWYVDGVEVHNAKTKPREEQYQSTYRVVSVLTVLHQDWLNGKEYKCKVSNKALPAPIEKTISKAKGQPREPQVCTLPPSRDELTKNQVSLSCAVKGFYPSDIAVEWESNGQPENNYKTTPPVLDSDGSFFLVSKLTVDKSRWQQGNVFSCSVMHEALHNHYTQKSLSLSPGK
heavy: EVKLDETGGGLVQPGRPMKLSCVASGFTFSDYWMNWVRQSPEKGLEWVAQIRNKPYNYETYYSDSVKGRFTISRDDSKSSVYLQMNNLRVEDMGIYYCTGSYYGMDYWGQGTSVTVSSASTKGPSVFPLAPSSKSTSGGTAALGCLVKDYFPEPVTVSWNSGALTSGVHTFPAVLQSSGLYSLSSVVTVPSSSLGTQTYICNVNHKPSNTKVDKKVEPKSCDKTHTCPPCPAPELLGGPSVFLFPPKPKDTLMISRTPEVTCVVVDVSHEDPEVKFNWYVDGVEVHNAKTKPREEQYQSTYRVVSVLTVLHQDWLNGKEYKCKVSNKALPAPIEKTISKAKGQPREPQVYTLPPCRDELTKNQVSLWCLVKGFYPSDIAVEWESNGQPENNYKTTPPVLDSDGSFFLYSKLTVDKSRWQQGNVFSCSVMHEALHNHYTQKSLSLSPGK
light: B1 light
notes: structure 1 isotype control; CH2 N297Q
B5: M1IC-FES-1 (bispecific antibody, human IgG1, kappa)
chain: B3 chain with A268F, A269E, G363P, P365S
heavy: B4 heavy with L235F, L236E, Q298N, P332S
light: B1 light
notes: structure 1 isotype control; CH2 FES; also called MlIC-FES-1
B6: M1IC-AG2-1 (bispecific antibody, human IgG1, kappa)
chain: B2 chain with C263A
heavy: B2 heavy with C230A
light: B1 light
notes: structure 1 isotype control; CH2 AG2CH2
B7: CD38-M1-G2-1 (bispecific antibody)
chain: not shown
heavy: EVQLLESGGGLVQPGGSLRLSCAVSGFTFNSFAMSWVRQAPGKGLEWVSAISGSGGGTYYADSVKGRFTISRDNSKNTLYLQMNSLRAEDTAVYFCAKDKILWFGEPVFDYWGQGTLVTVSSASTKGPSVFPLAPSSKSTSGGTAALGCLVKDYFPEPVTVSWNSGALTSGVHTFPAVLQSSGLYSLSSVVTVPSSSLGTQTYICNVNHKPSNTKVDKKVEPKSCDKTHTCPPCPAPPVAGPSVFLFPPKPKDTLMISRTPEVTCVVVDVSHEDPEVQFNWYVDGVEVHNAKTKPREEQFNSTFRVVSVLTVVHQDWLNGKEYKCKVSNKGLPAPIEKTISKTKGQPREPQVYTLPPCRDELTKNQVSLWCLVKGFYPSDIAVEWESNGQPENNYKTTPPVLDSDGSFFLYSKLTVDKSRWQQGNVFSCSVMHEALHNHYTQKSLSLSPGK
light: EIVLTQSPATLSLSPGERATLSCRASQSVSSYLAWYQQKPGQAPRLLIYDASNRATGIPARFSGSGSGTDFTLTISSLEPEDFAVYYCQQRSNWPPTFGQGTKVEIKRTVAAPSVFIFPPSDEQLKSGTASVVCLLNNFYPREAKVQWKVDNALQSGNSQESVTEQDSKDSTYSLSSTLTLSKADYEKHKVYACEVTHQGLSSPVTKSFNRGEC
notes: structure 1; CD38 x CD3 (I2C); CH2 G2CH2
B8: CD38-M1-GG2 (bispecific antibody)
chain: not shown
heavy: B7 heavy with C234G
light: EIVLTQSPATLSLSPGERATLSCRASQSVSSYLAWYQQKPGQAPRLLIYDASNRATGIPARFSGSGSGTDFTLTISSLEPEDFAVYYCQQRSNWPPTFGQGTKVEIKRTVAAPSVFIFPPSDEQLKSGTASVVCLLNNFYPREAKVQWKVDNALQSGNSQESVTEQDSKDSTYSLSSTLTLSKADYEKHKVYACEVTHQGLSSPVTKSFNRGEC
notes: structure 1; CD38 x CD3 (I2C); CH2 GG2CH2
B9: CD38-M1-G2D (bispecific antibody)
chain: not shown
heavy: B7 heavy with D274A
light: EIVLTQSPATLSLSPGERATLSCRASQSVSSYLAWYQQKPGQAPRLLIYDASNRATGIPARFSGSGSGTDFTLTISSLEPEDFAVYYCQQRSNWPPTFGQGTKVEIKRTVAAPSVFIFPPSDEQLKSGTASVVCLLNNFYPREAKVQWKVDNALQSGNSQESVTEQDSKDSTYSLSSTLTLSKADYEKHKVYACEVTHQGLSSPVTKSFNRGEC
notes: structure 1; CD38 x CD3 (I2C); CH2 G2DCH2
B10: CD38-M1-PG2 (bispecific antibody)
chain: not shown
heavy: B7 heavy with C234P
light: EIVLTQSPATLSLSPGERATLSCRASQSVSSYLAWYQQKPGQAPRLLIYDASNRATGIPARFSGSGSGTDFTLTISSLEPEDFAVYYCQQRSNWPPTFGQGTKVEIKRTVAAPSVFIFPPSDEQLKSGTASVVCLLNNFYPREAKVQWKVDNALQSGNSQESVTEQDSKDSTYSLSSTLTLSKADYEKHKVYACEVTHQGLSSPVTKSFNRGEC
notes: structure 1; CD38 x CD3 (I2C); CH2 PG2CH2
B11: CD38-M1-DG2D (bispecific antibody)
chain: not shown
heavy: B7 heavy with D269A, D274A
light: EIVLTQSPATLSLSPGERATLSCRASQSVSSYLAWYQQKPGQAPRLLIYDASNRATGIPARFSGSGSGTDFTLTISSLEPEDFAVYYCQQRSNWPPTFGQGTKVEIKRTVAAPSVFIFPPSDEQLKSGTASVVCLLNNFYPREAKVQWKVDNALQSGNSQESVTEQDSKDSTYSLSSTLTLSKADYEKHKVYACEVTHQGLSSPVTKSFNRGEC
notes: structure 1; CD38 x CD3 (I2C); CH2 DG2DCH2
B12: CD38-M1-AG2 (bispecific antibody)
chain: not shown
heavy: B7 heavy with C234A
light: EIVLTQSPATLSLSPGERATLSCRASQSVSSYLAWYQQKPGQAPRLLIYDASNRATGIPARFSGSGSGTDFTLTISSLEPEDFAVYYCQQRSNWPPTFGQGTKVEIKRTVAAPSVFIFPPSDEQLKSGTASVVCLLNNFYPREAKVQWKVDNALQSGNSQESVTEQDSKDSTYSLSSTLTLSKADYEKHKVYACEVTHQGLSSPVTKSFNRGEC
notes: structure 1; CD38 x CD3 (I2C); CH2 AG2CH2
B13: CD38-M1-DG2 (bispecific antibody)
chain: not shown
heavy: B7 heavy with D269A
light: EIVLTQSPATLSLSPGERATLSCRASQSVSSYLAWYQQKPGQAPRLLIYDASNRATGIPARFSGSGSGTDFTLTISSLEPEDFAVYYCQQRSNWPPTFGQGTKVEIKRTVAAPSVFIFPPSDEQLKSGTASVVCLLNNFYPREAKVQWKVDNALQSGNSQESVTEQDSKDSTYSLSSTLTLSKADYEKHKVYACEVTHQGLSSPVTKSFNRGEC
notes: structure 1; CD38 x CD3 (I2C); CH2 DG2CH2
B14: CD38-M1-SG2-3 (bispecific antibody)
chain: not shown
heavy: B7 heavy with C234S
light: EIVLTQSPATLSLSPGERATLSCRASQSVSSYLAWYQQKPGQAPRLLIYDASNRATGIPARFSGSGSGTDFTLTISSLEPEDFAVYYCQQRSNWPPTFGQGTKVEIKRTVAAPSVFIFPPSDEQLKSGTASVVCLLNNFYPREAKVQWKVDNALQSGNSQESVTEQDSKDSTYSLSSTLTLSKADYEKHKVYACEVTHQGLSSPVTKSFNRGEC
notes: structure 1; CD38 x CD3 (I2C); CH2 SG2CH2
B15: CD38-M1-FES-1 (bispecific antibody)
chain: not shown
heavy: EVQLLESGGGLVQPGGSLRLSCAVSGFTFNSFAMSWVRQAPGKGLEWVSAISGSGGGTYYADSVKGRFTISRDNSKNTLYLQMNSLRAEDTAVYFCAKDKILWFGEPVFDYWGQGTLVTVSSASTKGPSVFPLAPSSKSTSGGTAALGCLVKDYFPEPVTVSWNSGALTSGVHTFPAVLQSSGLYSLSSVVTVPSSSLGTQTYICNVNHKPSNTKVDKKVEPKSCDKTHTCPPCPAPEFEGGPSVFLFPPKPKDTLMISRTPEVTCVVVDVSHEDPEVKFNWYVDGVEVHNAKTKPREEQYNSTYRVVSVLTVLHQDWLNGKEYKCKVSNKALPASIEKTISKAKGQPREPQVYTLPPCRDELTKNQVSLWCLVKGFYPSDIAVEWESNGQPENNYKTTPPVLDSDGSFFLYSKLTVDKSRWQQGNVFSCSVMHEALHNHYTQKSLSLSPGK
light: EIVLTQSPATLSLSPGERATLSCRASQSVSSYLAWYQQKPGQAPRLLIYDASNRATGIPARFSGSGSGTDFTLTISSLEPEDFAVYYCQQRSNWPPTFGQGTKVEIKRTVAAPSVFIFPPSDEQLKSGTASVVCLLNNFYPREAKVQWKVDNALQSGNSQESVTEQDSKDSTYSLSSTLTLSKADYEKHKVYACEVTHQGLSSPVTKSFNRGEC
notes: structure 1; CD38 x CD3 (I2C); CH2 FES

The target of the first assay is T1, Human CD3ε (human, UniProt P07766 23-126).
T1 construct: CD3 on T cells isolated from human whole blood
Nature of the assay: flow cytometry, human T cells. An excerpt: 1) Cell preparation: T cells isolated from CD3-positive human whole blood were used for a CD3 end affinity detection of multifunctional antibody molecule; positive tumor cells of corresponding antigen were used for detecting affinity of tumor antigen; for example, CD38-positive MM. 1S cells (purchased from the Cell Resource Center of Shanghai Institutes for Biological Sciences, Chinese Academy of Sciences) or RPMI 8226 cells (purchased from the Cell Resource Center of Shanghai Institutes for Biological Sciences, Chinese Academy of Sciences) were used for CD38 antigen detection, and PD-L1 positive H358 cells (purchased from the Cell Resource Center of Shanghai Institutes for Biological Sciences, Chinese Academy of Sciences) were used for PD-L1 antigen detection, and so on. The cells were resuspended with 1% FBS-PBS, adjusted to a density of 4×10⁶/ml, and 50 μl of cells were taken from each well, and then plated at 2×10⁵ per well. Cell plating was operated on ice
2) Addition of the antibody: according to the experimental design, the antibody was diluted gradually, and dilution of antibody was operated on ice. For example, the initial concentration of antibody for dilution was 3000 nM, and the antibody was diluted by 3 times with 11 concentration gradients. The diluted antibody was added to a cell well at 50 μl per well, mixed well, and shaked and incubated at 4° C. 1100 rpm/min for 2 h; after washing, the cells were resuspend in 1% FBS-PBS, and a diluted secondary antibody PE anti-human IgG FC (Biolegend, 409304) was added with a final concentration of 8 ug/ml and a volume of 50 μl/well. At the same time, a well only added with cells and secondary antibody was set as a control, the components were mixed well, and incubated under shaking at 1100 rpm/min at 4° C. for 1 h;
5) Data analysis: the data was analyzed by a flow analysis software FlowJo 7.6 thereby obtaining an average fluorescence intensity of the specific antibody concentration, plotted by a Graphpad Prism 5 with the antibody concentration (nM) as an abscissa and the average fluorescence intensity as an ordinate; the EC50 value was calculated by the method of One site—Specific binding, and the EC50 value indicated the cell affinity of the antibody to the corresponding target antigen.
In general terms: Flow cytometry measures light scatter and fluorescence of single cells or particles in a stream.
The term EC50 denotes the concentration giving half of the maximal effect. B1 registered an EC50 of 153 nM.
On the same count and under the same terms, as for B2, the figure is 127 nM.
Same read-out and setting: to B3 belongs 152 nM.
For the molecule B4, the 50% effective concentration (EC50) is 194 nM.
In the case of B5, a half-maximal effect (EC50) was put at 170 nM.
On the same count and under the same terms, to B6 belongs 163 nM.

In a further assay the target is T2, Monkey CD3 (monkey).
T2 construct: whole, on cells; also called CD3 of monkey CD3 positive T cells
Nature of the assay: flow cytometry, monkey T cells.
Turning to B7, the concentration for a half-maximal effect (EC50) was found to be 12.6 nM.
On the same count and under the same terms, to B8 belongs 10.4 nM; to B9, 10.1 nM.
Still for that read-out and setting: to B10 belongs 11.5 nM; to B11, 7.05 nM.
As for B12, the EC50 was found to be 10.2 nM.
Regarding B13, the EC50 is 11 nM.
Still for that read-out and setting: as for B14, the figure is 7.59 nM; as for B1, 174 nM.
Still for that read-out and setting: as for B2, the figure is 165 nM; as for B3, 205 nM.
Same read-out and setting: to B4 belongs 378 nM; to B5, 295 nM; to B6, 197 nM.
Turning to B15, it took 9.18 nM to reach a half-maximal effect (EC50).
